In PMC10855199:

Molecular target: Aβ42 oligomers
Test: SPR; Biacore T200; AL fibrils (1000 RU) or Aβ42 oligomers (500 RU) amine-coupled on CM5; two-fold serial dilutions of whole antibody injected at 30 μL/min; 25 °C; 10 mM phosphate, 137 mM NaCl, 2.7 mM KCl, 0.05% Tween-20, pH 7.5; global fit to a Langmuir 1:1 model

B1: wild-type crenezumab (antibody, V domains shown)
VH: EVQLVESGGGLVQPGGSLRLSCAASGFTFSSYGMSWVRQAPGKGLELVASINSNGGSTYYPDSVKGRFTISRDNAKNSLYLQMNSLRAEDTAVYYCASGDYWGQGTTVTVSS
VL: DIVMTQSPLSLPVTPGEPASISCRSSQSLVYSNGDTYLHWYLQKPGQSPQLLIYKVSNRFSGVPDRFSGSGSGTDFTLKISRVEAEDVGVYYCSQSTHVPWTFGQGTKVEIK
Question: What does the source list for B1?
Answer: Kd: 1.53 nM; koff: 0.00116 s⁻¹; kon: 761000 M⁻¹ s⁻¹
